# Data from patent US20180312579A1 (Genentech, published 2018).
# B1: 1A1 (antibody, V domains shown)
# VH: EVQLVESGGGLVKPEGSLKLSCVASGFTFSDYFMSWVRQAPGQGLEWVAHIYTKTYNYATYYSGSVKGRFSISRDDSRNMVYLQMNNLRTEDTATYYCTTDEDWYFDFWGQGTQVTVSS
# VL: QPVLTQSPSVSASLGASVKLTCTLSSQHSTNYIEWYQQHPDKSPKFLMQVRDGSHSKGDGTPDRFSGSSSGAHRYLSISNLQLEDEAIYYCGLSDVSLYLFGSGTQLTLL
# notes: also called monoclonal antibody 1A1
# B2: 26E11 (antibody, V domains shown)
# VH: EVQLQESGPSLVKPSQTLSLTCSVTGDSITSGYWSWIRKFPGNKLEFMGYISFSGKTYYIPSLKSRVSITRDTSKNQYYLQLNSVTTEDTATYYCATYHGYGGPWFAYWGQGTLVTVSS
# VL: DIKMTQSPSSMYASLGERVTITCKASQDIDSYLSWFQQKPGKSPKTLIYLTNRLIDGVPSRFSGSGSGQDYSLTINSLEYEDMGIYYCLQYDEFPVTFGAGTRLEIK
# notes: also called monoclonal antibody 26E11; anti-RSPO2/3 antibody
# B3: 36D2 (antibody, V domains shown)
# VH: QIQLQESGPGLVKPSQSLSLTCSVTGNSITSSDWSWIRQFPGKKLEWMGYMNYGGGTYYNPSLENRISITRDTSKNQFFLHLKSVTTEDTATYYCARERPHPYAYFDVWGQGIQVTVSS
# VL: ELVFTQPQSVSGSLGQEISISCTRSSGNIGSNYVSWYQQQSSNKPRLLIYKFDQRPSGVPDRFSGSTDSSSNSGILTISRLQPEDEGDYYCLSGYDKYVFGSGTQLTLL
# notes: also called monoclonal antibody 36D2
# Assays:
# [1] = biological target: T1, human RSPO2 with C-terminal HA tag, stably expressed in 293 cells (human, UniProt Q6UXX9 22-243); assay: IHC, FFPE 293 cell pellet, RSPO2 Low
# T1 construct: Whole open reading frame was expressed from a lentiviral vector in HEK-293 cells sorted for high, medium or low expression; formalin-fixed paraffin-embedded pellets; also called hRSPO2; RSPO2 Hi
# [2] = biological target: T2, FLAG-tagged human RSPO2 (Genentech) (human, UniProt Q6UXX9 22-243); assay: competitive binding ELISA: titrated against biotinylated RNF43-Flag (RNF43-ECD) binding to plate-coated hRSPO2; signal = bound RNF43, normalized OD
# T2 construct: also called hRSPO2; RSPO2 coated plates; not shown: FLAG tag
# [3] = biological target: T3, human RSPO3 with C-terminal HA tag, stably expressed in 293 cells (human, UniProt Q9BXY4 22-272); assay: IHC, FFPE 293 cell pellet, RSPO3 Hi; - = not significant staining
# T3 construct: Whole open reading frame expressed in HEK-293 cells (high, medium, low); FFPE pellets; also called hRSPO3; RSPO3 Hi
# T3 sequence: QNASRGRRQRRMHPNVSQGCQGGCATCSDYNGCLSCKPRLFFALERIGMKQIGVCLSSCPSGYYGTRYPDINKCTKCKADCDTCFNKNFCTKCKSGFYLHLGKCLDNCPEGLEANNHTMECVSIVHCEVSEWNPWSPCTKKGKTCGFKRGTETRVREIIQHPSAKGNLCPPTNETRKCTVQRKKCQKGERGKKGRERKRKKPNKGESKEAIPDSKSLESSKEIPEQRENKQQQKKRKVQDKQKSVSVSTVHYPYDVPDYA
# [4] = biological target: T2, FLAG-tagged human RSPO2 (Genentech); assay: competitive binding ELISA: antibody titrated against LGR4-Fc (LGR4-ECD) binding to plate-coated hRSPO2; signal = bound LGR4-Fc, OD(450/630)/OD no antibody
# Procedure: (§1) To measure the activity of anti-RSPO antibodies in blocking the binding of LGR4 and -5 ECDs to RSPOs, MaxiSorp 384-well microwell plates (Thermo Scientific Nunc, Roskilde, Denmark) were coated with 25 ul/well of 0.5 μg/ml hRSPO2 or hRSPO3 (Genentech) in 50 mM carbonate buffer, pH 9.6, overnight at 4° C. Plates were blocked with at 80 ul/well of 0.5% bovine serum albumin, 15 parts per million Proclin 300 in phosphate buffered saline (PBS), pH 7.4, for 1 hour. Serially diluted anti-RSPO antibodies ([…] in […] serial dilution plus buffer blank) containing 0.1 μg/ml LGR4-Fc or 0.015 μg/ml LGR5-Fc in assay buffer (0.5% BSA, 0.05% polysorbate 20, 15 parts per million Proclin 300 in PBS) were added to the plates at 25 ul/well. After a 2-hour incubation, LGR4-Fc and LGR5-Fc bound to the plates were detected using peroxidase labeled goat F(ab′)2 anti-human Fc (Jackson ImmunoResearch, West Grove, Pa.). After a 1 hour incubation, the substrate 3,3′,5,5′-tetramethyl benzidine (Moss Inc., Pasadena, Md.) was added to the plates and the reaction was stopped by adding 1 M phosphoric acid. Plates were washed with PBS, pH 7.4, containing 0.05% tween 20, between steps and all the incubation steps following the coating step were performed at room temperature on an orbital shaker. Absorbance was read at 450 nm on a multiskan Ascent reader (Thermo Scientific, Hudson, N.H.).
# recombinant human RSPO3 = biological target: T4, recombinant human RSPO3 (human, UniProt Q9BXY4 22-272); assay: cell-based or functional assay
# T4 sequence: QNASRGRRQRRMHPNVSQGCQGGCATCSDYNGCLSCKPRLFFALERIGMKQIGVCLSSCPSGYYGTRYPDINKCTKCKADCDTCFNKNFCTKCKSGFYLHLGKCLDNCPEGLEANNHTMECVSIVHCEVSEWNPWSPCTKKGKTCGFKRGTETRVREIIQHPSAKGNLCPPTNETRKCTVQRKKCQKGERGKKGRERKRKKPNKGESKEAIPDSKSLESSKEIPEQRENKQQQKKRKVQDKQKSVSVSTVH
# cynomolgus RSPO3 = biological target: T5, cynomolgus RSPO3 (cynomolgus, UniProt A0A2K5UTQ7 22-273); assay: cell-based or functional assay
# T5 sequence: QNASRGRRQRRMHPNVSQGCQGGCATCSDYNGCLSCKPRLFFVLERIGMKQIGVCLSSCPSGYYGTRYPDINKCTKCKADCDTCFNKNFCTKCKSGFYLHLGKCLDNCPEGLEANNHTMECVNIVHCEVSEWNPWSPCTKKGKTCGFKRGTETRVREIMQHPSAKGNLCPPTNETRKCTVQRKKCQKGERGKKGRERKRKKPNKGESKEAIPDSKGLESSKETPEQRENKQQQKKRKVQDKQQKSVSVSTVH
# cynomolgus RSPO2 = cynomolgus RSPO2 (cynomolgus, UniProt G7PCH9 22-243); assay: cell-based or functional assay
# recombinant human RSPO2 = recombinant human RSPO2 (human, UniProt Q6UXX9 22-243); assay: cell-based or functional assay
# mouse RSPO2 = mouse RSPO2 (mouse, UniProt Q8BFU0 22-205, limits assumed); assay: cell-based or functional assay
# mouse RSPO3 = biological target: T6, mouse RSPO3 (mouse, UniProt Q2TJ95 22-277, limits assumed); assay: cell-based or functional assay
# T6 sequence (looked up): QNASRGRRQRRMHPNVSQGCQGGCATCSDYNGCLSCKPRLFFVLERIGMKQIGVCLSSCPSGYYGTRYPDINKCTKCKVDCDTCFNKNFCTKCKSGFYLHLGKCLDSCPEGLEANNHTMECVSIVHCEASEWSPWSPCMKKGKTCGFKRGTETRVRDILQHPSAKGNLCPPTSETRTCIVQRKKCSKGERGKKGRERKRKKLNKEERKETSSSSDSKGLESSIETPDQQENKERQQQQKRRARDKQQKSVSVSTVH
# [5] = biological target: T1, human RSPO2 with C-terminal HA tag, …; assay: IHC, FFPE 293 cell pellet, RSPO2 Hi
# [6] = biological target: T1, human RSPO2 with C-terminal HA tag, …; assay: IHC, FFPE 293 cell pellet, RSPO2 Med
# [7] = biological target: T7, human RSPO1 with C-terminal HA tag, stably expressed in 293 cells (human, UniProt Q2MKA7 21-263); assay: IHC, FFPE 293 cell pellet, RSPO1 Hi; - = not significant staining
# T7 construct: also called hRSPO1; RSPO1 Hi
# [8] = biological target: T8, human RSPO4 with C-terminal HA tag, stably expressed in 293 cells (human, UniProt Q2I0M5 20-234); assay: IHC, FFPE 293 cell pellet, RSPO4 Hi; - = not significant staining
# T8 construct: also called hRSPO4; RSPO4 Hi
# [9] = biological target: T9, human RSPO2 L186P variant (human, UniProt Q6UXX9 22-243); assay: cell-based or functional assay
# T9 chain: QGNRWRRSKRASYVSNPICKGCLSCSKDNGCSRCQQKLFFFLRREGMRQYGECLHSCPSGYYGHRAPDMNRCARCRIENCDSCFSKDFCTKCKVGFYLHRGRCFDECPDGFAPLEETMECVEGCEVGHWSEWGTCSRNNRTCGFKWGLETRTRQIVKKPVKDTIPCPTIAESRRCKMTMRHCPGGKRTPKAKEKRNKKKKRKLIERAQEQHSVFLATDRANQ
# [10] = biological target: T3, human RSPO3 with C-terminal HA tag, …; assay: IHC, FFPE 293 cell pellet, RSPO3 Hi
# [11] = biological target: T3, human RSPO3 with C-terminal HA tag, …; assay: IHC, FFPE 293 cell pellet, RSPO3 Low
# [12] = biological target: T3, human RSPO3 with C-terminal HA tag, …; assay: IHC, FFPE 293 cell pellet, RSPO3 Med
# [13] = biological target: T10, FLAG-tagged human RSPO3 (Genentech) (human, UniProt Q9BXY4 22-272); assay: competitive binding ELISA: titrated against biotinylated RNF43-Flag (RNF43-ECD) binding to plate-coated hRSPO3; signal = bound RNF43, normalized OD
# T10 construct: also called hRSPO3; RSPO3 coated plates; not shown: FLAG tag
# T10 sequence: T4 sequence
# [14] = biological target: T10, FLAG-tagged human RSPO3 (Genentech); assay: competitive binding ELISA: antibody titrated against LGR4-Fc (LGR4-ECD) binding to plate-coated hRSPO3; signal = bound LGR4-Fc, OD(450/630)/OD no antibody
# Procedure: as §1
# T7 sequence (Q2MKA7 other isoform, or with tags, fused parts or gaps limits assumed): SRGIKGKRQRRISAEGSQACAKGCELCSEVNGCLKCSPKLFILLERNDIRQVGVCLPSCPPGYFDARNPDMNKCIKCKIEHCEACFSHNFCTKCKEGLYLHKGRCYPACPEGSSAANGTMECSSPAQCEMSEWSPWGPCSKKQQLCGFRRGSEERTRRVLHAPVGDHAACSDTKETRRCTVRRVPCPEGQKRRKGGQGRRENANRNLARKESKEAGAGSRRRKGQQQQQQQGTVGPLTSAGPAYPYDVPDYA
# T8 sequence (Q2I0M5 other isoform, or with tags, fused parts or gaps limits assumed): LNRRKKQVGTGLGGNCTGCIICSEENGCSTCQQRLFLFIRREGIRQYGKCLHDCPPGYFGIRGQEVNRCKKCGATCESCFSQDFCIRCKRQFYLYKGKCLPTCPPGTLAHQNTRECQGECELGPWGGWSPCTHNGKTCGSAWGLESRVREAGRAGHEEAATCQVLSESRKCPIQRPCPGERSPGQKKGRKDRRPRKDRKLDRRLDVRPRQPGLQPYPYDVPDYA
# mouse RSPO2, sequence (Q8BFU0 22-205 limits assumed): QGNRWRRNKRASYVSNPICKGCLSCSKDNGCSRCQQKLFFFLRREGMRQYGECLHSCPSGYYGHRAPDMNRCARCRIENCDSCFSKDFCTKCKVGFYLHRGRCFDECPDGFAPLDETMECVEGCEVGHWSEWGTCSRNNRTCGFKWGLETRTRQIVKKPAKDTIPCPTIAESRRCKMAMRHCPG
binder,measurement,setting,value
B1,percentage of cells staining,[1],30%
same,IC50 (read off the curve),[2],~0.1 µg/mL
same,binding result,[3],no binding
same,EC50 (read off the curve),[4],~0.07 µg/mL
same,"IC50, WNT luciferase reporter, bivalent antibody",recombinant human RSPO3,> 500000 pM
same,"IC50, WNT luciferase reporter, bivalent antibody",cynomolgus RSPO3,> 500000 pM
same,"IC50, WNT luciferase reporter, bivalent antibody",cynomolgus RSPO2,0.5 pM
same,"IC50, WNT luciferase reporter, bivalent antibody",recombinant human RSPO2,0.4 pM
same,"IC50, WNT luciferase reporter, bivalent antibody",mouse RSPO2,2.2 pM
same,"IC50, WNT luciferase reporter, bivalent antibody",mouse RSPO3,> 500000 pM
same,percentage of cells staining,[5],80%
same,percentage of cells staining,[6],40%
same,binding result,[7],no binding
same,binding result,[8],no binding
same,"IC50 (read off the curve), WNT reporter RLU stimulated by 38 pM rhRSPO2 L186P",[9],~0.6 pM
B2,percentage of cells staining,[1],10%
same,percentage of cells staining,[10],90%
same,IC50 (read off the curve),[2],~0.1 µg/mL
same,percentage of cells staining,[11],50%
same,IC50 (read off the curve),[4],~0.09 µg/mL
same,"IC50, WNT luciferase reporter, bivalent antibody",recombinant human RSPO3,0.01 pM
same,"IC50, WNT luciferase reporter, bivalent antibody",cynomolgus RSPO3,0.2 pM
same,"IC50, WNT luciferase reporter, bivalent antibody",cynomolgus RSPO2,2700 pM
same,"IC50, WNT luciferase reporter, bivalent antibody",recombinant human RSPO2,9800 pM
same,"IC50, WNT luciferase reporter, bivalent antibody",mouse RSPO2,24000 pM
same,"IC50, WNT luciferase reporter, bivalent antibody",mouse RSPO3,0.4 pM
same,percentage of cells staining,[5],70%
same,percentage of cells staining,[12],70%
same,percentage of cells staining,[6],40%
same,binding result,[7],no binding
same,binding result,[8],no binding
same,IC50 (read off the curve),[13],~0.08 µg/mL
same,IC50 (read off the curve),[14],~0.1 µg/mL
B3,percentage of cells staining,[1],< 5%
same,IC50 (read off the curve),[2],~1 µg/mL
same,binding result,[3],no binding
same,"IC50, WNT luciferase reporter, bivalent antibody",recombinant human RSPO3,> 500000 pM
same,"IC50, WNT luciferase reporter, bivalent antibody",cynomolgus RSPO3,> 500000 pM
same,"IC50, WNT luciferase reporter, bivalent antibody",cynomolgus RSPO2,13 pM
same,"IC50, WNT luciferase reporter, bivalent antibody",recombinant human RSPO2,12 pM
same,"IC50, WNT luciferase reporter, bivalent antibody",mouse RSPO2,44 pM
same,"IC50, WNT luciferase reporter, bivalent antibody",mouse RSPO3,> 500000 pM
same,percentage of cells staining,[5],> 95%
same,percentage of cells staining,[6],50%
same,binding result,[7],no binding
same,binding result,[8],no binding
same,"IC50 (read off the curve), WNT reporter RLU stimulated by 38 pM rhRSPO2 L186P",[9],~20 pM
